The series deals with MS2 coat protein. Kind of series: apparent KD of MS2 coat protein; designed switch direction (-1 OFF switch, 1 ON switch): -1; higher = weaker reporter binding. The essentials:
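Designed RNA switches were transcribed on Illumina chips by stalled E. coli RNA polymerase and titrated with SNAP-549-labelled MS2 coat protein from 0.7 or 1.5 nM, doubling to 3 µM. Step length ran from 0.8–1.5 h at the lowest concentration to 10–20 min at the highest. The apparent KD is the median over clusters for each design, from curve-fitted normalised cluster fluorescence.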

The mark [1] stands for this setting: Eterna round: R95, input ligand: FMN 200 uM.
Setting [2] is: Eterna round: R95, input ligand: microRNA oligo, concentration not stated.
Where [3] appears, read: Eterna round: R95, input ligand: none.
The mark [4] stands for this setting: input ligand: microRNA oligo, concentration not stated.

With “ACUUCACAUGAGGAUCACCCAUGUGAGGAUAUCGUCGAGGAUGUAAUGCCAUCCGUGACGAGAAGGCGCAUGGU [Exclusion 1 (Mod 2.1 solution 40 by Eternabot)] (Eterna round: R97, puzzle: Exclusion 1)”, the “apparent KD of MS2 coat protein” value reads like this: (input ligand: FMN 200 uM) 147 nM; (input ligand: none) 31.1 nM.

For “ACUUGUCAUGAGGAUAUGCGACGCAACGGUGGAGCAGAAGGCGUGACAUGAGGAUCACCCAUGUCAGUUCGCGA [eternacac ex6r4 sub32] (Eterna round: R97, puzzle: Exclusion 6)”, the “apparent KD of MS2 coat protein” value is, setting by setting: (input ligand: FMN 200 uM) 43.4 nM; (input ligand: none) 16.1 nM.

With “AGAAAUGCCCAUGGCCACAAGCUUUUUGCUUGUCUUACUACAUGAGGAUCACCCAUGUAACAUGGGCUCCUGACAAA [Soarriat] (puzzle: Sensor v3, turn-off variant 2)”, the “apparent KD of MS2 coat protein” value by setting is: under setting [1], 12.9 nM; under setting [2], 9.12 nM; under setting [3], 10.9 nM.

“AGAAGACAUGAGGAUCACCCAUGUAAGGAUAUCGAAGGUAAGAGAGGAAAGAAGGGAACGAGAAGGUACAGGUG [JR_Exclu1_Sub096] (puzzle: Exclusion 1)”: the “apparent KD of MS2 coat protein” value runs as follows: under setting [1], 91.6 nM; under setting [2], 107 nM; under setting [3], 156 nM.

For “AGAAGACAUGAGGAUCACCCAUGUAAGGAUAUCGAAGGUAUGAGAGGAAAGAGGUUAACGAGAAGGUACAGGUG [JR_Exclu1_Sub098] (puzzle: Exclusion 1)”, the “apparent KD of MS2 coat protein” value by setting is: under setting [1], 85.9 nM; under setting [2], 74.1 nM; under setting [3], 130 nM.

Turning to “AGAAGACAUGAGGAUCACCCAUGUAAGGAUAUCGGAGGUAAGGGAGGAAGGAGAUAGGCGAGAAGGUACAGGUG [JR_Exclu1_Sub093] (puzzle: Exclusion 1)”, the “apparent KD of MS2 coat protein” value is, setting by setting: under setting [1], 39 nM; under setting [2], 53.1 nM; under setting [3], 51.7 nM.

For the sequence “AGACAGUGAGGAUAUGCAGUCGGUGUCACCUGAUGAGAAGAACAUGAGGAUCACCCAUGUAGAAGGCACAGGAA [Tearrice] (puzzle: Exclusion 2)”, the “apparent KD of MS2 coat protein” value under setting [2] worked out at 40.6 nM.

Regarding “AGAGAAUACUCAGGAUAUCGGAAUAGAAAGAGACGAGAAGGGAGACAUGAGGAUCACCCAUGUGAAGUCUUGAGGCUGCAUGGA [Prohibition 26 - Jieux - Exclusion NG 1] (Eterna round: R96, puzzle: Exclusion NG 1)”, the “apparent KD of MS2 coat protein” value (input ligand: FMN 200 uM) was found to be 197 nM, the “apparent KD of MS2 coat protein” value under setting [4] turned out to be 122 nM and the “apparent KD of MS2 coat protein” value (input ligand: none) worked out at 165 nM.

For “AGAGUGCUGCGAGGAUAUACAUGAGGAUCACCCAUGUGGAUCUGUGAGGCUUUGCCUCACAGGAUGUAGAAGGCGCAGUACUCA [Mat - Exclusion NG 2 - Mod of JL - D48] (Eterna round: R96, puzzle: Exclusion NG 2)”, the “apparent KD of MS2 coat protein” value worked out at 178 nM (input ligand: FMN 200 uM), 18.2 nM under setting [4] and 25.4 nM (input ligand: none).

Consider “AGAGUGCUGCGAGGAUAUACAUGAGGAUCACCCAUGUGGAUCUGUGAGGGAAAACCUCACAGGAUGUAGAAGGCGCAGUACUCA [Mat - Exclusion NG 2 - Mod of JL - D50] (Eterna round: R96, puzzle: Exclusion NG 2)”, for which the “apparent KD of MS2 coat protein” value (input ligand: FMN 200 uM) was 134 nM, the “apparent KD of MS2 coat protein” value under setting [4] was 15.8 nM and the “apparent KD of MS2 coat protein” value (input ligand: none) was determined as 37.2 nM.

Consider “AGAGUGUGAGGAUAUAUGGUGAAGAUGAAGAAAGAGAAGGAGUAGAAGGUACAUGAGGAUCACCCAUGUUGAGG [JR_Exclu4_Sub071] (puzzle: Exclusion 4)”, for which the “apparent KD of MS2 coat protein” value is, setting by setting: under setting [1], 44.8 nM; under setting [2], 47.8 nM; under setting [3], 45.5 nM.

As to “AGAUCACAUGAGGAUCACCCAUGUCAGGAUAUCUACAUUGAAGCUUCGGCUUCAAUGUAGAGAAGGGAUAAUUA [E1/4-B1] (Eterna round: R97, puzzle: Exclusion 1)”, the “apparent KD of MS2 coat protein” value runs as follows: (input ligand: FMN 200 uM) 119 nM; (input ligand: none) 62.2 nM.

On to “AGAUGGCGAGGAUAUACAUGAGGAUCACCCAUGUGAGAGAAUAAAGUGAGGAAGAAAAGUAGAAGGCGCUGUCA [Mat - Exclusion 3 - Mod of Salish D10] (puzzle: Exclusion 3)”, for which the “apparent KD of MS2 coat protein” value under setting [2] amounted to 43.3 nM.

Regarding “AGAUGUAGAUACCGAUCCUACAUGAGGAUCACCCAUGUAGCAAGACGUGCACGCGAAGCUCGUCAGACUACCAGAAG [salish99_TOv1_r3_083] (puzzle: Sensor v3, turn-off variant 1)”, the “apparent KD of MS2 coat protein” value is, setting by setting: under setting [1], 114 nM; under setting [2], 99.7 nM; under setting [3], 137 nM.

For “AGAUGUAGAUACCGAUCCUACAUGAGGAUCACCCAUGUAGCUAGACGUGCCCGCGUCGCUCGUCAGACUACCAGUAG [salish99_TOv1_r3_090] (puzzle: Sensor v3, turn-off variant 1)”, the “apparent KD of MS2 coat protein” value runs as follows: under setting [1], 252 nM; under setting [2], 248 nM; under setting [3], 269 nM.

On to “AGAUGUCCGCAGGAUAUGCGGGCGAGGCCCUAAGCAGAAGGGCGGACAUGAGGAUCACCCAUGUGAGUAAAAGA [EX6 A.23] (Eterna round: R97, puzzle: Exclusion 6)”, for which the “apparent KD of MS2 coat protein” value (input ligand: FMN 200 uM) was determined as 94.2 nM and the “apparent KD of MS2 coat protein” value (input ligand: none) came to 25.2 nM.

Turning to “AGAUUAAAAGUAAGGAUAUGAUGCAGGAAACUGCGUCAGAAGGUACAUGAGGAUCACCCAUGUUAAACUAAUUU [Explosion 6 - Jieux - Brourd's mod of Exclusion 4] (Eterna round: R97, puzzle: Brourd's mod of Exclusion 4)”, the “apparent KD of MS2 coat protein” value worked out at 19.4 nM (input ligand: FMN 200 uM) and 14.4 nM (input ligand: none).

Take “AGAUUACAUGAGGAUCACCCAUGUCAGGAUAUCGACUGAACAGCUUCGGCUGUUCAGUCGAGAAGGGACAAUUA [Brourdxlusion 10 - Jieux - Exclusion 1] (Eterna round: R97, puzzle: Exclusion 1)”: the “apparent KD of MS2 coat protein” value runs as follows: (input ligand: FMN 200 uM) 122 nM; (input ligand: none) 59.7 nM.

As to “AGCAGACGAGGAUAUAAAUUUAAAUACAUGAGGAUCACCCAUGUAUAAAUGUAUUUAAAUUUAGAAGGCGUCUGCU [E5/12-A1] (Eterna round: R97, puzzle: Exclusion 5)”, the “apparent KD of MS2 coat protein” value was 793 nM (input ligand: FMN 200 uM) and 710 nM (input ligand: none).

As to “AGCAGACGAGGAUAUAGAUUUGAUAACAUGAGGAUCACCCAUGUGAUCGAUAGAUCAGAUUUAGAAGGCGUCUGCU [E5/8-A1] (Eterna round: R97, puzzle: Exclusion 5)”, the “apparent KD of MS2 coat protein” value stood at 412 nM (input ligand: FMN 200 uM) and 525 nM (input ligand: none).

“AGCAGACGAGGAUAUGAUAAUUAAUACAUGAGGAUCACCCAUGUAAUACUGAUCGAUAGAUCAGAAGGCGUCUGCU [E5/3-A2] (Eterna round: R97, puzzle: Exclusion 5)”: the “apparent KD of MS2 coat protein” value is, setting by setting: (input ligand: FMN 200 uM) 14.7 nM; (input ligand: none) 16.4 nM.

Turning to “AGCAUGCUAGGAUAUACGAAACAUUAGGGUUCUUUGUAUAAACAUGAGGAUCACCCAUGUAGAAGGAGCGUGCA [Mat - Exclusion 2 - Mod of Hyphema - D97] (puzzle: Exclusion 2)”, the “apparent KD of MS2 coat protein” value under setting [2] was 40.9 nM.

Consider “AGCCAAGCAGGAUAUGCCCGGAAUAACAUGAGGAUCACCCAUGUGACCGAUUGAUGUUCUGCAGAAGGGCUUGGAA [Erxesoan mod] (Eterna round: R97, puzzle: Exclusion 5)”, for which the “apparent KD of MS2 coat protein” value is, setting by setting: (input ligand: FMN 200 uM) 214 nM; (input ligand: none) 28.8 nM.

Turning to “AGCCUACAUGAGGAUCACCCAUGUCAGGAUAUCUCGCGACGUGUCGGGAACACGUUGCAGAGAAGGGACUCGGG [Labezadi] (puzzle: Exclusion 1)”, the “apparent KD of MS2 coat protein” value under setting [2] was determined as 51.8 nM.

As to “AGCCUAGCAGGAUAUGCCCGGGAUAACAUGAGGAUCACCCAUGUGACCGAUUGAUGUCUUGCAGAAGGGCUAGGGA [JL-EX5-4.02 ViennaUCT mod] (Eterna round: R97, puzzle: Exclusion 5)”, the “apparent KD of MS2 coat protein” value runs as follows: (input ligand: FMN 200 uM) 58.4 nM; (input ligand: none) 15.7 nM.

On to “AGCGAAUAGCUAGGAUAUGAGAAUAGAUAGAGCUCAGAAGGAGCACAUGAGGAUCACCCAUGUAAAGUCUUGAGGCUGCGUGGU [Prohibition 16 - Jieux - Exclusion NG 1] (Eterna round: R96, puzzle: Exclusion NG 1)”, for which the “apparent KD of MS2 coat protein” value (input ligand: FMN 200 uM) came to 79.5 nM, the “apparent KD of MS2 coat protein” value under setting [4] stood at 27.2 nM and the “apparent KD of MS2 coat protein” value (input ligand: none) stood at 66.3 nM.

On to “AGCGAGACAGGAUAUACUUGAGGAUCACCCAAGUCACAAAGGGUCUCACUCUUCACUAGUAGAAGGGUCGUGUA [Lereer] (Eterna round: R97, puzzle: Exclusion 3)”, for which the “apparent KD of MS2 coat protein” value is 24.1 nM (input ligand: FMN 200 uM) and 18.7 nM (input ligand: none).

“AGCGAGGCAGGAUAUACAUGAGGAUCACCCAUGUGCUUGUAUGGCGUGGAACAUCGUAGUAGAAGGGCCGCGCC [EX3 #77] (Eterna round: R97, puzzle: Exclusion 3)”: the “apparent KD of MS2 coat protein” value by setting is: (input ligand: FMN 200 uM) 28.4 nM; (input ligand: none) 22.2 nM.

In the case of “AGCGAGGUAGGAUAUACAUGAGGAUCACCCAUGUGCUUGCAUGGCGUGGAAUGUCGAGGUAGAAGGGCCAUGCC [EX3 #72] (Eterna round: R97, puzzle: Exclusion 3)”, the “apparent KD of MS2 coat protein” value runs as follows: (input ligand: FMN 200 uM) 33.2 nM; (input ligand: none) 27.2 nM.

For “AGCGCCAUCGUGAGAUGGCGUAUUACAUGAGGAUCACCCAUGUAGGAUAUCGAUUGCUUUGCAGUCGAGAAGGGCAUGUCCCAG [JL ENG3 3.80 Mod J] (Eterna round: R96, puzzle: Exclusion NG 3)”, the “apparent KD of MS2 coat protein” value amounted to 23 nM (input ligand: FMN 200 uM), 19.2 nM under setting [4] and 24.1 nM (input ligand: none).

Source of the values: the supplement of paper PMC9170038.
